Experimental data: IntAct's records for PubMed 33393904

B1: SUN domain-containing protein 2 (Homo sapiens), Q9UH99 (parent)
chain: MSRRSQRLTRYSQGDDDGSSSSGGSSVAGSQSTLFKDSPLRTLKRKSSNMKRLSPAPQLGPSSDAHTSYYSESLVHESWFPPRSSLEELHGDANWGEDLRVRRRRGTGGSESSRASGLVGRKATEDFLGSSSGYSSEDDYVGYSDVDQQSSSSRLRSAVSRAGSLLWMVATSPGRLFRLLYWWAGTTWYRLTTAASLLDVFVLTRRFSSLKTFLWFLLPLLLLTCLTYGAWYFYPYGLQTFHPALVSWWAAKDSRRPDEGWEARDSSPHFQAEQRVMSRVHSLERRLEALAAEFSSNWQKEAMRLERLELRQGAPGQGGGGGLSHEDTLALLEGLVSRREAALKEDFRRETAARIQEELSALRAEHQQDSEDLFKKIVRASQESEARIQQLKSEWQSMTQESFQESSVKELRRLEDQLAGLQQELAALALKQSSVAEEVGLLPQQIQAVRDDVESQFPAWISQFLARGGGGRVGLLQREEMQAQLRELESKILTHVAEMQGKSAREAAASLSLTLQKEGVIGVTEEQVHHIVKQALQRYSEDRIGLADYALESGGASVISTRCSETYETKTALLSLFGIPLWYHSQSPRVILQPDVHPGNCWAFQGPQGFAVVRLSARIRPTAVTLEHVPKALSPNSTISSAPKDFAIFGFDEDLQQEGTLLGKFTYDQDGEPIQTFHFQAPTMATYQVVELRILTNWGHPEYTCIYRFRVHGEPAH

Variants of: B1
Conditions: with syne1_human SYNE1, Q8NF91

Variant | effect of a mutation on the interaction
I579E | disrupting interaction strength
C705A | increasing interaction strength
